# B1: GInHMGB1: HMGB1 polypeptide with its B-Box domain tyrosine residues replaced by glutamine (SEQ ID NO:12), expressed in HEK cells (protein)
# chain: MGKGDPKKPRGKMSSYAFFVQTCREEHKKKHPDASVNFSEFSKKCSERWKTMSAKEKGKFEDMAKADKARYEREMKTYIPPKGETKKKFKDPNAPKRPPSAFFLFCSEQRPKIKGEHPGLSIGDVAKKLGEMWNNTAADDKQPQEKKAAKLKEKQEKDIAAQRAKGKPDAAKKGVVKAEKSKKKKEEEEDEEDEEDEEEEEDEEDEDEEEDDDDE
# modifications: HMGB1 Y -> Q mutein
# Experiments:
# [1] = system: colon carcinoma cell lines; test: LDH release assay; type: cell-based, human; conditions: all colon carcinoma cell lines used; p<0.05, n=4
# Experimental: Lactate dehydrogenase activity was assayed spectrophotometrically by measuring the oxidation of NADH with pyruvate substrate at 340 nm as described in Bergmeyer and Berndt E. (1974). Results were analyzed using the following equation: […]
# [2] = system: colon carcinoma cell lines; test: MTT assay; type: cell-based, human; conditions: all colon carcinoma cell lines used; 0, 24, 48 hours; p<0.05, n=4
# Experimental: Assays were performed at three time points (0, 24, 48 hours), and the experiment was repeated four times. At each time point the cell viability was measured using the 3-(4,5-dimethylthiazol-2-yl)-2,5-diphenyl tetrazolium bromide (MTT) assay. The MTT assay was performed as described by Mosmann (Mosmann T. Rapid colorimetric assay for cellular growth and survival: application to proliferation and cytotoxicity assays. J Immunol Methods. 1983;65:55-63.). In brief, at each time point, medium was aspirated from the wells and MTT (1 mg/ml) was gently added to each well. The cells were incubated for 3 hours at 37° C. in 5% CO2, after which the MTT was aspirated and acidified isopropanol (0.04 M HCl) added to solubilize the reduced blue formazan crystals. Aliquots were transferred to a 96-well plate and the absorbance measured at a test filter of 590 nm and a reference filter of 630 nm on a 96-well plate reader.
molecule,measurement,setting,value
B1,release of LDH into the medium compared to the untreated control,[1],significant release of LDH
same,"proliferation (cell viability, MTT) compared to the untreated control",[2],significant decrease in proliferation

# — patent publication US11274132B2, “Combined preparations of PKM2 modulators and HMGB1” (Ruprecht-Karls-Universität Heidelberg, priority 2015, dated 2022)
